Results on 19 variants are retold here after the supplement of paper PMC7125110.

The chains are these.
B1: glmS ribozyme (parent)
chain: AUAAAAGCGCCAGAACUACAGAAAUGUAGUUGACGAGGAGGAGGUUUAUCGAAUUUUCGGCGGAUGCCUCCAAA

Common to all, as to conditions: with glucosamine-6-phosphate
Variants of B1 are the subject of series [1]. The series is described as follows: kcat; higher = faster cleavage; RNA array. The method, boiled down: (§1)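 Tiles of sequenced MiSeq chips were imaged over ~14 h at 37 °C. On them, barcoded ribozyme variants had been transcribed in situ by E. coli RNA polymerase and were tracked via a hybridised Cy3 probe while glucosamine-6-phosphate (40 μM to 10 mM) in HEPES/KCl/Mg(OAc)2 buffer flowed in. Per-tile medians, normalised to baseline and to non-cleaving reference variants, were fit to one- or two-exponential decays for kobs, and weighted Michaelis–Menten fits gave kcat and KM.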

Series [2] covers variants of B1. Nature of the series: KM; higher = weaker cofactor use; RNA array. An outline of the steps: as §1
Series [3] covers variants of B1. The series is described as follows: self-cleavage kobs at 40 uM GlcN6P; higher = faster cleavage; RNA array. An outline of the steps:
as §1

Series [4] covers variants of B1. Nature of the series: self-cleavage kobs at 160 uM GlcN6P; higher = faster cleavage; RNA array. An outline of the steps:
as §1

In series [5] the parent is B1. The series is described as follows: self-cleavage kobs at 640 uM GlcN6P; higher = faster cleavage; RNA array. The method, boiled down:
as §1

Variants of B1 are the subject of series [6]. The series is described as follows: self-cleavage kobs at 2500 uM GlcN6P; higher = faster cleavage; RNA array. The method, boiled down: as §1
Series [7] covers variants of B1. Nature of the series: self-cleavage kobs at 10000 uM GlcN6P; higher = faster cleavage; RNA array. The method, boiled down: as §1

± gives the standard error. For part of these data: This sample holds only a part of the variants without activity. A value given as a limit tells only on which side of the number the result lay.

As a reminder, the kcat is the maximal rate divided by the concentration of active sites. Broadly, the KM is the concentration of substrate that gives half-maximal velocity. As for C11U A53G, the kcat with glucosamine-6-phosphate [1] was determined as 0.00166 ± 9.2e-05 s⁻¹. Further, the KM with glucosamine-6-phosphate [2] amounted to 1400 ± 120 µM. Besides, the “self-cleavage kobs at 40 uM GlcN6P” value with glucosamine-6-phosphate [3] amounted to 5.07e-05 ± 5.9e-06 s⁻¹. In addition, the “self-cleavage kobs at 160 uM GlcN6P” value with glucosamine-6-phosphate [4] was determined as 0.000156 ± 2e-05 s⁻¹. The “self-cleavage kobs at 640 uM GlcN6P” value with glucosamine-6-phosphate [5] was 0.000513 ± 4.2e-05 s⁻¹. In addition, the “self-cleavage kobs at 2500 uM GlcN6P” value with glucosamine-6-phosphate [6] came out at 0.00111 ± 0.00013 s⁻¹. For the same variant, in the series with glucosamine-6-phosphate [7], the “self-cleavage kobs at 10000 uM GlcN6P” value was 0.00145 ± 0.00012 s⁻¹.

For C16U A42G, the kcat with glucosamine-6-phosphate [1] was determined as 0.0195 ± 0.0085 s⁻¹. In addition, the “self-cleavage kobs at 40 uM GlcN6P” value with glucosamine-6-phosphate [3] was determined as 0.000669 ± 0.0001 s⁻¹. Moreover, the “self-cleavage kobs at 160 uM GlcN6P” value with glucosamine-6-phosphate [4] worked out at 0.00221 ± 0.00057 s⁻¹. Also, the “self-cleavage kobs at 640 uM GlcN6P” value in the series with glucosamine-6-phosphate [5] was determined as 0.00699 ± 0.0019 s⁻¹. The “self-cleavage kobs at 2500 uM GlcN6P” value in the series with glucosamine-6-phosphate [6] amounted to 0.00906 ± 0.0027 s⁻¹. The “self-cleavage kobs at 10000 uM GlcN6P” value with glucosamine-6-phosphate [7] stood at 0.0355 ± 0.0076 s⁻¹.

For the variant U30G A36G C71G, the kcat in the series with glucosamine-6-phosphate [1] is 1.69e-05 ± 3.9e-06 s⁻¹. Moreover, the “self-cleavage kobs at 40 uM GlcN6P” value in the series with glucosamine-6-phosphate [3] was less than 1e-05 s⁻¹. For the same variant, the “self-cleavage kobs at 2500 uM GlcN6P” value with glucosamine-6-phosphate [6] was less than 1e-05 s⁻¹. For the same variant, the “self-cleavage kobs at 10000 uM GlcN6P” value with glucosamine-6-phosphate [7] was less than 1e-05 s⁻¹.

Regarding G29C U57A, the kcat in the series with glucosamine-6-phosphate [1] turned out to be 4.62e-05 ± 8e-06 s⁻¹. The “self-cleavage kobs at 10000 uM GlcN6P” value in the series with glucosamine-6-phosphate [7] was found to be 3.78e-05 ± 1.1e-05 s⁻¹.

As to G51U C67A C71U, the kcat with glucosamine-6-phosphate [1] was determined as 2.47e-05 ± 3.5e-06 s⁻¹.

For C11U A52U, the kcat with glucosamine-6-phosphate [1] turned out to be 5.56e-05 ± 4.4e-06 s⁻¹. In the series with glucosamine-6-phosphate [2], the Michaelis-Menten constant (KM) was determined as 1620 ± 690 µM. For the same variant, the “self-cleavage kobs at 2500 uM GlcN6P” value with glucosamine-6-phosphate [6] is 3.57e-05 ± 1.8e-05 s⁻¹. Further, the “self-cleavage kobs at 10000 uM GlcN6P” value with glucosamine-6-phosphate [7] is 4.77e-05 ± 8.4e-06 s⁻¹.

In the case of G13A A53U C58A, the kcat in the series with glucosamine-6-phosphate [1] is 0.000493 ± 0.00022 s⁻¹. Also, in the series with glucosamine-6-phosphate [5], the “self-cleavage kobs at 640 uM GlcN6P” value amounted to 6.46e-05 ± 1.6e-05 s⁻¹. Moreover, the “self-cleavage kobs at 2500 uM GlcN6P” value in the series with glucosamine-6-phosphate [6] came out at 0.000366 ± 0.0001 s⁻¹. Further, in the series with glucosamine-6-phosphate [7], the “self-cleavage kobs at 10000 uM GlcN6P” value is 0.000332 ± 8.4e-05 s⁻¹.

For A36U U69C, in the series with glucosamine-6-phosphate [1], the kcat was 2.28e-05 ± 3.7e-06 s⁻¹.

For A15C U54C, the kcat in the series with glucosamine-6-phosphate [1] worked out at 0.00621 ± 0.0013 s⁻¹. Also, in the series with glucosamine-6-phosphate [2], the KM is 1740 ± 510 µM. In addition, in the series with glucosamine-6-phosphate [3], the “self-cleavage kobs at 40 uM GlcN6P” value was determined as 0.000176 ± 2.3e-05 s⁻¹. For the same variant, the “self-cleavage kobs at 160 uM GlcN6P” value with glucosamine-6-phosphate [4] came out at 0.000481 ± 8.7e-05 s⁻¹. Also, the “self-cleavage kobs at 640 uM GlcN6P” value with glucosamine-6-phosphate [5] came out at 0.00131 ± 0.00024 s⁻¹. In the series with glucosamine-6-phosphate [6], the “self-cleavage kobs at 2500 uM GlcN6P” value is 0.00384 ± 0.00078 s⁻¹. Moreover, in the series with glucosamine-6-phosphate [7], the “self-cleavage kobs at 10000 uM GlcN6P” value was found to be 0.00556 ± 0.00077 s⁻¹.

Regarding C10A A14U G59U C71G, the kcat with glucosamine-6-phosphate [1] worked out at 1.42e-05 ± 3.8e-06 s⁻¹.

Regarding G43C C68G, the kcat with glucosamine-6-phosphate [1] was determined as 0.0157 ± 0.0024 s⁻¹. The KM with glucosamine-6-phosphate [2] is 265 ± 63 µM. Further, in the series with glucosamine-6-phosphate [3], the “self-cleavage kobs at 40 uM GlcN6P” value was 0.00205 ± 0.00027 s⁻¹. In addition, in the series with glucosamine-6-phosphate [4], the “self-cleavage kobs at 160 uM GlcN6P” value stood at 0.00622 ± 0.0014 s⁻¹. Moreover, the “self-cleavage kobs at 640 uM GlcN6P” value with glucosamine-6-phosphate [5] worked out at 0.0109 ± 0.0018 s⁻¹. Also, in the series with glucosamine-6-phosphate [6], the “self-cleavage kobs at 2500 uM GlcN6P” value turned out to be 0.0139 ± 0.0031 s⁻¹.

For C34G U46G C50U C67U, the kcat with glucosamine-6-phosphate [1] was found to be 1.54e-05 ± 5.4e-06 s⁻¹.

Turning to C34G G63U C68G, the kcat in the series with glucosamine-6-phosphate [1] was 2.21e-05 ± 7.4e-06 s⁻¹.

A12U G40U: the kcat with glucosamine-6-phosphate [1] came to 0.0088 ± 0.0017 s⁻¹. Also, in the series with glucosamine-6-phosphate [2], the KM was determined as 1410 ± 390 µM. Further, in the series with glucosamine-6-phosphate [3], the “self-cleavage kobs at 40 uM GlcN6P” value stood at 0.000308 ± 2.8e-05 s⁻¹. Further, the “self-cleavage kobs at 160 uM GlcN6P” value with glucosamine-6-phosphate [4] is 0.000749 ± 8.6e-05 s⁻¹. The “self-cleavage kobs at 640 uM GlcN6P” value with glucosamine-6-phosphate [5] was 0.00235 ± 0.00038 s⁻¹. Further, in the series with glucosamine-6-phosphate [6], the “self-cleavage kobs at 2500 uM GlcN6P” value was determined as 0.00609 ± 0.00085 s⁻¹. The “self-cleavage kobs at 10000 uM GlcN6P” value in the series with glucosamine-6-phosphate [7] worked out at 0.00785 ± 0.00081 s⁻¹.

As to A12G G29C, the kcat with glucosamine-6-phosphate [1] was 0.000167 ± 5.4e-05 s⁻¹. For the same variant, the “self-cleavage kobs at 640 uM GlcN6P” value with glucosamine-6-phosphate [5] came out at 3.94e-05 ± 1.1e-05 s⁻¹. Further, in the series with glucosamine-6-phosphate [6], the “self-cleavage kobs at 2500 uM GlcN6P” value came to 4.98e-05 ± 1.3e-05 s⁻¹. Also, in the series with glucosamine-6-phosphate [7], the “self-cleavage kobs at 10000 uM GlcN6P” value was 0.000123 ± 1.4e-05 s⁻¹.

As to G13C A15G, in the series with glucosamine-6-phosphate [1], the kcat turned out to be 0.000223 ± 1.1e-05 s⁻¹. The Michaelis constant (KM) in the series with glucosamine-6-phosphate [2] came out at 2950 ± 270 µM. For the same variant, the “self-cleavage kobs at 640 uM GlcN6P” value with glucosamine-6-phosphate [5] turned out to be 4.12e-05 ± 8e-06 s⁻¹. Besides, the “self-cleavage kobs at 2500 uM GlcN6P” value in the series with glucosamine-6-phosphate [6] is 9.91e-05 ± 1.3e-05 s⁻¹. In addition, in the series with glucosamine-6-phosphate [7], the “self-cleavage kobs at 10000 uM GlcN6P” value was 0.000176 ± 2.8e-05 s⁻¹.

Consider A15C U49G, for which the kcat in the series with glucosamine-6-phosphate [1] was determined as 0.000113 ± 1.2e-05 s⁻¹. Besides, in the series with glucosamine-6-phosphate [2], the KM turned out to be 1520 ± 550 µM. Also, the “self-cleavage kobs at 2500 uM GlcN6P” value in the series with glucosamine-6-phosphate [6] stood at 8.06e-05 ± 2.4e-05 s⁻¹. Besides, the “self-cleavage kobs at 10000 uM GlcN6P” value with glucosamine-6-phosphate [7] was found to be 9.51e-05 ± 1.9e-05 s⁻¹.

A6C G37U: the kcat with glucosamine-6-phosphate [1] is less than 1e-05 s⁻¹. In the series with glucosamine-6-phosphate [3], the “self-cleavage kobs at 40 uM GlcN6P” value was less than 1e-05 s⁻¹.

For U49A A53G, the kcat with glucosamine-6-phosphate [1] worked out at 2.25e-05 ± 2.1e-06 s⁻¹. In addition, the KM with glucosamine-6-phosphate [2] was found to be 3410 ± 1000 µM.
